Laboratory results taken from the Immune Epitope Database (IEDB).

Legend:
Experiment in all cases: IEDB peptide-MHC binding, purified MHC/competitive/radioactivity; filed as Kd, often an IC50 or EC50 that approximates it; ≥ and ≤ were set here for values at or beyond the usual limits of such assays
HLA-A*03:01 = target: HLA-A*03:01
HLA-A*33:01 = target: HLA-A*33:01
HLA-A*31:01 = target: HLA-A*31:01
HLA-A*11:01 = target: HLA-A*11:01
HLA-A*68:01 = target: HLA-A*68:01
[1] = source organism: Dengue virus 2 Jamaica/1409/1983
[2] = source organism: Dengue virus 1 Singapore/S275/1990
[3] = source organism: Vaccinia virus WR
[4] = source organism: Mammarenavirus brazilense
[5] = source organism: Lymphocytic choriomeningitis virus (strain Armstrong)
[6] = source organism: Triticum aestivum
[7] = source organism: SARS coronavirus Tor2
[8] = source organism: Mammarenavirus juninense
[9] = source organism: Dengue virus 3 Martinique/1243/1999

Question: How did the Kd (HLA-A*03:01; [1]) turn out when GLTSRATWAK was run?
Answer: Its Kd is 52.3 nM.

Question: For SYTQVCDHR, which Kd (HLA-A*33:01; source organism: Dengue virus 1 Nauru/West Pac/1974) is on record?
Answer: The Kd was 43.2 nM.

Question: Which Kd (HLA-A*31:01; [2]) does the source give for RIMQRGLLGR here?
Answer: The Kd was 1.16 nM.

Question: And the Kd (HLA-A*03:01; [2])?
Answer: Its Kd is 5.56 nM.

Question: Which Kd (HLA-A*11:01; [3]) does the source give for TSLAIKNYYR here?
Answer: Its Kd is 0.933 nM.

Question: And the Kd (HLA-A*33:01; [3])?
Answer: The Kd was 258 nM.

Question: And the Kd (HLA-A*31:01; [3])?
Answer: Its Kd is 460 nM.

Question: What about the Kd (HLA-A*03:01; [3]) of the same sequence?
Answer: The Kd was 118 nM.

Question: And the Kd (HLA-A*68:01; [3])?
Answer: The Kd was 5.8 nM.

Question: With TAVAPSMTMR as the sequence, how does the Kd (HLA-A*68:01; [1]) read?
Answer: The Kd was 18.8 nM.

Question: With MLDTSEKYSK as the sequence, how does the Kd (HLA-A*11:01; [3]) read?
Answer: Its Kd is 107 nM.

Question: And the Kd (HLA-A*33:01; [3])?
Answer: Its Kd is ≥ 70000 nM.

Question: And the Kd (HLA-A*31:01; [3])?
Answer: Its Kd is ≥ 22300 nM.

Question: What about the Kd (HLA-A*03:01; [3]) of the same sequence?
Answer: Its Kd is 17300 nM.

Question: And the Kd (HLA-A*68:01; [3])?
Answer: The Kd was 4320 nM.

Question: What does the source list for KCFEKFLEPK?
Answer: Kd (HLA-A*11:01; [4]): 16900 nM; Kd (HLA-A*33:01; [4]): ≥ 23100 nM; Kd (HLA-A*31:01; [4]): 1030 nM; Kd (HLA-A*03:01; [4]): 1270 nM; Kd (HLA-A*68:01; [4]): 3470 nM

Question: How did the Kd (HLA-A*68:01; [1]) turn out when MSTYGWNLVR was run?
Answer: Its Kd is 24.9 nM.

Question: How did the Kd (HLA-A*11:01; [5]) turn out when STLLTWHMH was run?
Answer: The Kd was 258 nM.

Question: And the Kd (HLA-A*33:01; [5])?
Answer: The Kd was ≥ 77700 nM.

Question: And the Kd (HLA-A*31:01; [5])?
Answer: Its Kd is 4490 nM.

Question: And the Kd (HLA-A*03:01; [5])?
Answer: The Kd was ≥ 38200 nM.

Question: And the Kd (HLA-A*68:01; [5])?
Answer: Its Kd is 2720 nM.

Question: For RNKKPRICTR, which Kd (HLA-A*31:01; source organism: Dengue virus 1 Brazil/97-11/1997) is on record?
Answer: Its Kd is ≥ 70000 nM.

Question: For VVLQQHNIVH, which Kd (HLA-A*11:01; [6]) is on record?
Answer: The Kd was 4630 nM.

Question: What about the Kd (HLA-A*33:01; [6]) of the same sequence?
Answer: The Kd was ≥ 28300 nM.

Question: And the Kd (HLA-A*31:01; [6])?
Answer: The Kd was 5200 nM.

Question: And the Kd (HLA-A*03:01; [6])?
Answer: Its Kd is 2020 nM.

Question: And the Kd (HLA-A*68:01; [6])?
Answer: The Kd was ≥ 29600 nM.

Question: How did the Kd (HLA-A*11:01; [3]) turn out when KSTELIRRVR was run?
Answer: The Kd was ≥ 20200 nM.

Question: What about the Kd (HLA-A*33:01; [3]) of the same sequence?
Answer: The Kd was 1930 nM.

Question: What about the Kd (HLA-A*31:01; [3]) of the same sequence?
Answer: Its Kd is 15 nM.

Question: What about the Kd (HLA-A*03:01; [3]) of the same sequence?
Answer: The Kd was ≥ 70100 nM.

Question: What about the Kd (HLA-A*68:01; [3]) of the same sequence?
Answer: The Kd was 901 nM.

Question: For ETNMITLLVK, which Kd (HLA-A*11:01; source organism: Dengue virus 4 Philippines/H241/1956) is on record?
Answer: The Kd was 1080 nM.

Question: How did the Kd (HLA-A*11:01; [4]) turn out when QFNQMMNPSH was run?
Answer: The Kd was ≥ 69700 nM.

Question: What about the Kd (HLA-A*33:01; [4]) of the same sequence?
Answer: Its Kd is ≥ 70000 nM.

Question: What about the Kd (HLA-A*31:01; [4]) of the same sequence?
Answer: Its Kd is ≥ 20200 nM.

Question: And the Kd (HLA-A*03:01; [4])?
Answer: The Kd was ≥ 70000 nM.

Question: What about the Kd (HLA-A*68:01; [4]) of the same sequence?
Answer: Its Kd is ≥ 70100 nM.

Question: Which results are given for VFYRSGTETK?
Answer: Kd (HLA-A*11:01; [3]): ≥ 34100 nM; Kd (HLA-A*33:01; [3]): 6530 nM; Kd (HLA-A*31:01; [3]): 8280 nM; Kd (HLA-A*03:01; [3]): ≥ 33800 nM; Kd (HLA-A*68:01; [3]): ≥ 20400 nM

Question: Which Kd (HLA-A*11:01; [7]) does the source give for FLIGANYLGK here?
Answer: The Kd was 543 nM.

Question: What about the Kd (HLA-A*33:01; [7]) of the same sequence?
Answer: The Kd was ≥ 34000 nM.

Question: And the Kd (HLA-A*31:01; [7])?
Answer: Its Kd is 3720 nM.

Question: What about the Kd (HLA-A*03:01; [7]) of the same sequence?
Answer: The Kd was 213 nM.

Question: What about the Kd (HLA-A*68:01; [7]) of the same sequence?
Answer: Its Kd is 51.3 nM.

Question: What does the source list for FMDEIDHESY?
Answer: Kd (HLA-A*11:01; [3]): ≥ 36400 nM; Kd (HLA-A*33:01; [3]): ≥ 43700 nM; Kd (HLA-A*31:01; [3]): ≥ 22000 nM; Kd (HLA-A*03:01; [3]): 15800 nM; Kd (HLA-A*68:01; [3]): ≥ 59200 nM

Question: Which Kd (HLA-A*11:01; [8]) does the source give for TGINENYAK here?
Answer: The Kd was 1530 nM.

Question: What about the Kd (HLA-A*33:01; [8]) of the same sequence?
Answer: The Kd was ≥ 77700 nM.

Question: What about the Kd (HLA-A*31:01; [8]) of the same sequence?
Answer: The Kd was ≥ 53400 nM.

Question: And the Kd (HLA-A*03:01; [8])?
Answer: The Kd was ≥ 78000 nM.

Question: What about the Kd (HLA-A*68:01; [8]) of the same sequence?
Answer: Its Kd is 998 nM.

Question: How did the Kd (HLA-A*11:01; [9]) turn out when TSADLTVEK was run?
Answer: The Kd was 185 nM.

Question: And the Kd (HLA-A*68:01; [9])?
Answer: Its Kd is 15.5 nM.

Question: Which results are given for NVKHTSVSAK?
Answer: Kd (HLA-A*11:01; [3]): 3350 nM; Kd (HLA-A*33:01; [3]): 8280 nM; Kd (HLA-A*31:01; [3]): 10300 nM; Kd (HLA-A*03:01; [3]): 519 nM; Kd (HLA-A*68:01; [3]): 502 nM

Question: NMKPNFWSR was tested. Which Kd (HLA-A*11:01; [3]) did it give?
Answer: The Kd was ≥ 34700 nM.

Question: And the Kd (HLA-A*33:01; [3])?
Answer: The Kd was 1.06 nM.

Question: And the Kd (HLA-A*31:01; [3])?
Answer: The Kd was 0.349 nM.

Question: And the Kd (HLA-A*03:01; [3])?
Answer: Its Kd is ≥ 78000 nM.

Question: And the Kd (HLA-A*68:01; [3])?
Answer: Its Kd is 208 nM.

Question: IVNEHDIKY was tested. Which Kd (HLA-A*11:01; [3]) did it give?
Answer: The Kd was 85.1 nM.

Question: And the Kd (HLA-A*33:01; [3])?
Answer: The Kd was ≥ 55800 nM.

Question: And the Kd (HLA-A*31:01; [3])?
Answer: Its Kd is ≥ 39900 nM.

Question: And the Kd (HLA-A*03:01; [3])?
Answer: Its Kd is 1.13 nM.

Question: And the Kd (HLA-A*68:01; [3])?
Answer: Its Kd is 4460 nM.
